Source: US20090087417A1, “METHODS FOR PROMOTING DOPAMINERGIC NEURONAL DEVELOPMENT BY USING NG4A-SUBFAMILY AND WNT-LIGANDS” (priority 2002, published 2009)

How the values were obtained:
[1] = tested on: E14.5 ventral mesencephalic precursor cultures; assay: Number of TH+ neurons in E14.5 ventral mesencephalic precursor cultures; type: cell-based, rat; conditions: for increase in TH+ neurons: partially purified Wnts, compared to controls (FIG. 10A); for effects on TH+ cell numbers, time course: 10 units, 1, 3 and 7 days in vitro; for increases in TH+ cell numbers compared with GDNF, FGF-2 or FGF-8 / increases in TH+ cell numbers compared with VM T1A conditioned medium: after 3 days; for TH+ cell numbers: increasing concentrations of partially purified Wnt, 3 days
Method: (§1) Ventral mesencephala and cerebral cortices from embryos E13.5-14.5 obtained from timed-mated Sprague-Dawley rats were dissected, mechanically dissociated and plated at a final density of 1×10^5 cells/cm2 on poly-D-lysine coated 12- or 24-well plates in a defined, serum-free medium (N2, consisting of a 1:1 mixture of F12 and DMEM containing insulin (10 ng/ml), transferrin (100 μg/ml), putrescine (100 μM), progesterone (20 nM), selenium (30 nM), glucose (6 mg/ml), and bovine serum albumin (1 mg/ml)). Purified Type 1 astrocytes were obtained from mixed glial cultures derived from the VM or CTX of P1 rats according to a standard protocol (Wagner et al., 1999). After shaking and replating into 12-well plates, astrocytes were grown to confluency in 15% fetal bovine serum-containing media and changed to N2 medium, at which time freshly dissected VM or CTX cells were plated on top of the astrocytes at a density of 1×10^5 cells/cm2. All factors were added once, at the initiation of culture, with the exception of 5-bromodeoxyuridine (BrdU), which was added 4-6 hours prior to fixation. Cultures were maintained in a humidified 5% CO2, 95% air incubator at 37° C. and fixed after given time periods with 4% paraformaldehyde for 45 minutes prior to immunocytochemical analysis.
B1A fibroblast lines stably overexpressing hemagglutanin-tagged Wnt-1a, 3a, or 5a (Shimizu H., 1997) were grown in standard complete media (DMEM+10% FBS) supplemented with 100 ug/ml G-418. For collection of conditioned media, cells were replated at low density in complete media and allowed to reach 50-75% confluency, at which point cells were washed and media was replaced with serum-free N2 (with 10 μM sodium butyrate) for 24 hours. Conditioned media from sister flasks was then harvested, pooled as lots and stored at −80° C. for up to 2 months. When compared to fresh CM, no loss of activity was observed when using this collection and storage routine. T1A CM was harvested using a similar procedure, with the exception that media was collected after 3 days in vitro.
For concentration, individual lots of CM were thawed at room temperature, divided into 80 ml aliquots, loaded onto Centricon-Plus 80 columns (Millipore) and concentrated via centrifugation according to the manufacturers instructions. Following concentration, aliquots were re-pooled and frozen at −80 C after a sample was taken for determination of protein content and Western blot analysis. In brief, 20 ug of protein was loaded onto a 10% polyacrylamide mini-gel and run under denaturing conditions at 150 V for approximately 30 minutes. After dry electroblot transfer onto PVDF membranes (Hybond P, Amersham Pharmacia Biotech, Upsalla, Sweden) and pre-incubation for 30 minutes in a blocking buffer consisting of 3% bovine serum albumin in Tris-Buffered Saline with […] Triton-X 100 (TBST), blots were incubated with mouse anti-hemagglutinin (Babco) diluted 1:1000 in TBST overnight at 4 C. After washing, blots were incubated with alkaline phosphatase-coupled goat anti-mouse IgG (Santa Cruz) diluted 1:1000 in TBST for 1 hour at room temperature. Blots were visualized using the Amersham ECF reagent and blue fluorescence quantitated using a Molecular Devices Storm 840 phosphoimager.
B1A fibroblast lines were cotransfected with the mFz8CRD-IgG/pRK5 and the pIRES puro 2 (Clontech, BD Bioscience, Erembodegem, Belgium) plasmids, using Lipofectamine Plus reagent (Invitrogen, Lidingo, Sweden) according to the instruction of the manufacturer. Upon selection for puromycin resistance (1 μg/ml Sigma, Stockholm, Sweden), clones were isolated and expanded. A clone overexpressing Fz8CRD 700× (real time RT-PCR analysis) was identified. Harvesting and partial purification of Fz8CRD conditioned media were performed as described previously. In all the blocking experiments performed, the Fz8CRD and B1A control partial purified conditioned medias were used at a final concentration of 125-250 μg/ml. […]

[2] = tested on: VM precursor cultures / Nurr1+ precursor cells; assay: BrdU incorporation (proliferation) in VM precursor cultures; type: cell-based, rat; conditions: for BrdU incorporation in VM precursor cultures: 3 days in vitro; for increase in Nurr1 and BrdU double positive precursor cells (mitosis in Nurr1+ population): 1 day in vitro
Method: as §1
Fixed cultures were incubated with one of the following antibodies, diluted appropriately in phosphate-buffered saline (PBS) containing 1% bovine serum albumin and 0.3% Triton-X 100: mouse anti-BrdU, 1:50 (DAKO, Denmark), mouse anti-β-tubulin, Type III (TuJ1), 1:250 (Sigma), mouse anti-TH, 1:1000 (Incstar, USA), rabbit anti-TH, 1:250 (PelFreeze); rabbit anti-Nurr1, 1:2000 (gift from Dr. T. Perlmann, Sweden), rabbit anti-Nurr1, 1:1000 (Santa Cruz, USA) or mouse anti-Nurr1, 1:250 (BD Transduction Laboratories, USA), rabbit anti Adh2 1:4000 (gift from Dr. R. Lindahl, South Carolina). Incubations were either carried out at 4° C. overnight, or at room temperature for 1 hour. Both processes yielded similar results. After washing, cultures were incubated for 1-3 hr with appropriate secondary antibodies (biotinylated 1:500; CY2-, FITC-, or rhodamine-coupled horse-anti-mouse IgG 1:100; or goat-anti-rabbit IgG 1:100; all from Vector, USA), in the same dilution buffer. Brightfield immunostaining was visualized with the Vector Laboratory ABC immunoperoxidase kit, using either NovaRed (red), or AEC (red), SG or 3-3′ dimaminobenzidine tetrahydrochloride (DAB 0.5 mg/ml)/nickel chloride (1.6 mg/ml) (gray/black), or VIP (violet) substrates. Double-staining was performed by sequential single staining as described. The order of staining was only critical for BrdU-double labeling, in which case the BrdU procedure was always performed second. […] Photos were acquired with a Zeiss Axioplan 100M microscope and collected with a Hamamatsu camera C4742-95 (with the QED imaging software).
Only clearly stained cells were counted as positive cells. Spheres were considered positive if they contained one or more positive cell. Quantitative immunocytochemical data on individual cells represent means and standard errors of counts obtained by a blinded observer from 10-20 non-overlapping fields (cells) or in the entire well (clusters), in each of 3-4 wells per condition from 3-4 independent experiments, unless stated otherwise. For each variable, initial statistical comparisons were performed by a global ANOVA, with multiple factors of dose, time point, treatment and/or region; if significant interactions between treatment and any other variable existed, data were further divided into separate times, doses or regions. Fisher's protected least significant difference was used post hoc to identify specific points at which the treatments differed from controls (or each other) only when significant interactions between factor treatment and other variables occurred. Significance for all tests was assumed at the level of p<0.05. […]

Molecule | increase in TH+ neurons [1] | BrdU incorporation in VM precursor cultures [2] | effects on TH+ cell numbers, time course [1] | increases in TH+ cell numbers compared with GDNF, FGF-2 or FGF-8 [1] | increases in TH+ cell numbers compared with VM T1A conditioned medium [1] | TH+ cell numbers [1] | increase in Nurr1 and BrdU double positive precursor cells (mitosis in Nurr1+ population) [2]
Wnt-2: Partially purified / conditioned media from Wnt-2 overexpressing fibroblast cell line (protein, UniProt P21552 26-360, looked up, conditioned medium, Partially purified / conditioned media from Wnt-2 overexpressing fibroblast cell line) Protein Wnt-2: SWWYMRATGGSSRVMCDNVPGLVSRQRQLCHRHPDVMRAIGLGVAEWTAECQHQFRQHRWNCNTLDRDHSLFGRVLLRSSRESAFVYAISSAGVVFAITRACSQGELKSCSCDPKKKGSAKDSKGTFDWGGCSDNIDYGIKFARAFVDAKERKGKDARALMNLHNNRAGRKAVKRFLKQECKCHGVSGSCTLRTCWLAMADFRKTGDYLWRKYNGAIQVVMNQDGTGFTVANKRFKKPTKNDLVYFENSPDYCIRDREAGSLGTAGRVCNLTSRGMDSCEVMCCGRGYDTSHVTRMTKCECKFHWCCAVRCQDCLEALDVHTCKAPKSADWATPT | ~2 fold | slight decrease |  |  |  |  | 
Wnt-1: Partially purified conditioned media from stable fibroblast cell line engineered to secrete Wnt-1 ligand (protein, left off: small tags and cut ends) ANSSGRWWGIVNIASSTNLLTDSKSLQLVLEPSLQLLSRKQRRLIRQNPGILHSVSGGLQSAVRECKWQFRNRRWNCPTAPGPHLFGKIVNRGCRETAFIFAITSAGVTHSVARSCSEGSIESCTCDYRRRGPGGPDWHWGGCSDNIDFGRLFGREFVDSGEKGRDLRFLMNLHNNEAGRTTVFSEMRQECKCHGMSGSCTVRTCWMRLPTLRAVGDVLRDRFDGASRVLYGNRGSNRASRAELLRLEPEDPAHKPPSPHDLVYFEKSPNFCTYSGRLGTAGTAGRACNSSSPALDGCELLCCGRGHRTRTQRVTERCNCTFHWCCHVSCRNCTHTRVLHECL |  | increased | detected as early as after 1 day in vitro | exceeded increases produced by known dopaminotrophic molecules | roughly equaled | robust dose-response increases | 3 fold
Wnt-5a: Partially purified conditioned media from stable fibroblast cell line engineered to secrete Wnt-5a ligand (protein, left off: small tags and cut ends) IIGAQPLCSQLAGLSQGQKKLCHLYQDHMQYIGEGAKTGIKECQYQFRHRRWNCSTVDNTSVFGRVMQIGSRETAFTYAVSAAGVVNAMSRACREGELSTCGCSRAARPKDLPRDWLWGGCGDNIDYGYRFAKEFVDARERERIHAKGSYESARILMNLHNNEAGRRTVYNLADVACKCHGVSGSCSLKTCWLQLADFRKVGDALKEKYDSAAAMRLNSRGKLVQVNSRFNSPTTQDLVYIDPSPDYCVRNESTGSLGTQGRLCNKTSEGMDGCELMCCGRGYDQFKTVQTERCHCKFHWCCYVKCKKCTEIVDQFVCK |  | not | detected as early as after 1 day in vitro | exceeded increases produced by known dopaminotrophic molecules | roughly equaled | robust dose-response increases | two
Wnt-7a: Partially purified / conditioned media from Wnt-7a overexpressing fibroblast cell line (protein, UniProt P24383 32-349, looked up, conditioned medium, Partially purified / conditioned media from Wnt-7a overexpressing fibroblast cell line) Protein Wnt-7a: LGASIICNKIPGLAPRQRAICQSRPDAIIVIGEGSQMGLDECQFQFRNGRWNCSALGERTVFGKELKVGSREAAFTYAIIAAGVAHAITAACTQGNLSDCGCDKEKQGQYHRDEGWKWGGCSADIRYGIGFAKVFVDAREIKQNARTLMNLHNNEAGRKILEENMKLECKCHGVSGSCTTKTCWTTLPQFRELGYVLKDKYNEAVHVEPVRASRNKRPTFLKIKKPLSYRKPMDTDLVYIEKSPNYCEEDPVTGSVGTQGRACNKTAPQASGCDLMCCGRGYNTHQYARVWQCNCKFHWCCYVKCNTCSERTEMYTCK | modest TH+ increases | BrdU+ increases similar to that of Wnt-1 |  |  |  |  | 
